Laboratory results taken from CN114591431A (MEISWEI SHANGHAI BIOTECHNOLOGY CO LTD, dated 2022).
Numbering of substitutions follows the chain as printed.

T1: 重组人GAS6 his 蛋白(Novoprotein，Cat#C01W) (human, UniProt Q14393 31-678, limits assumed)
T1 construct: Bought protein; not shown: His tag
T1 sequence (looked up): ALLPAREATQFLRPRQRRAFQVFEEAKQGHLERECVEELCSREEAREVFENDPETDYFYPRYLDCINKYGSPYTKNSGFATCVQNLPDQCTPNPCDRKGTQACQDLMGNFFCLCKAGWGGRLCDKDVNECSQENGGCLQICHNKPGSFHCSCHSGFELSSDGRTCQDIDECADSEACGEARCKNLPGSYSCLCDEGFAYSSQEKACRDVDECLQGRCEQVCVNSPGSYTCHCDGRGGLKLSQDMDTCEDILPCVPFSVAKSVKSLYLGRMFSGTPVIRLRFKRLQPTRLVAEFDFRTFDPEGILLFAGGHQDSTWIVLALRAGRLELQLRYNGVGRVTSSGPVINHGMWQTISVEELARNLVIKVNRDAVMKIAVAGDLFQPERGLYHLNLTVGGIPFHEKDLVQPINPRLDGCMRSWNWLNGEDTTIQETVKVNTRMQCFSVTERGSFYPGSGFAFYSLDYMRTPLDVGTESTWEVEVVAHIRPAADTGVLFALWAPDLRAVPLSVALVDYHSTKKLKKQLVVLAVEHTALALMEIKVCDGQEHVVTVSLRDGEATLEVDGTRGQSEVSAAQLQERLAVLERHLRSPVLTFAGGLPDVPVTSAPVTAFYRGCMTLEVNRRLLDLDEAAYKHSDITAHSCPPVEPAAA

T2: 鼠GAS6 his蛋白(Sino Biological，Cat#58026-M08H) (mouse, UniProt Q61592 28-674)
T2 construct: Bought protein; also called 小鼠 GAS6; not shown: His tag
T2 sequence (looked up): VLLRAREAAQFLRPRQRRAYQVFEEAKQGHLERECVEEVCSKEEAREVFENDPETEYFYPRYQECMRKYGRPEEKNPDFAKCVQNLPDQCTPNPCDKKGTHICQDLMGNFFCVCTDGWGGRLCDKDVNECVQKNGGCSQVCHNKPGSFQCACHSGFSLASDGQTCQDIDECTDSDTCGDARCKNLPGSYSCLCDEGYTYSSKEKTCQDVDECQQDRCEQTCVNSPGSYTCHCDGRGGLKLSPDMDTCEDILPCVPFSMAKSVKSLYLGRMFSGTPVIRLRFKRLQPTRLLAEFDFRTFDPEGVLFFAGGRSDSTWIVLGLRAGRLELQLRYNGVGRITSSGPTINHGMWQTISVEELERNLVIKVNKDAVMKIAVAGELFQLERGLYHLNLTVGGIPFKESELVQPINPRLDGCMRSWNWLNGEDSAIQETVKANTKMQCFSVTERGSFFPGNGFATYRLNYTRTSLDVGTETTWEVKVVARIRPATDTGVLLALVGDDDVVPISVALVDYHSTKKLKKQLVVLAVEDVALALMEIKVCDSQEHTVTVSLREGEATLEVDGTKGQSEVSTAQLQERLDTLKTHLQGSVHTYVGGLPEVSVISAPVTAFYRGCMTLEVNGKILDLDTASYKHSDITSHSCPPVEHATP

T3: 重组人Protein S his 蛋白(R&D，Cat# 9489-PS) (human, UniProt P07225 42-676, limits assumed)
T3 construct: Bought protein; not shown: His tag
T3 sequence (looked up): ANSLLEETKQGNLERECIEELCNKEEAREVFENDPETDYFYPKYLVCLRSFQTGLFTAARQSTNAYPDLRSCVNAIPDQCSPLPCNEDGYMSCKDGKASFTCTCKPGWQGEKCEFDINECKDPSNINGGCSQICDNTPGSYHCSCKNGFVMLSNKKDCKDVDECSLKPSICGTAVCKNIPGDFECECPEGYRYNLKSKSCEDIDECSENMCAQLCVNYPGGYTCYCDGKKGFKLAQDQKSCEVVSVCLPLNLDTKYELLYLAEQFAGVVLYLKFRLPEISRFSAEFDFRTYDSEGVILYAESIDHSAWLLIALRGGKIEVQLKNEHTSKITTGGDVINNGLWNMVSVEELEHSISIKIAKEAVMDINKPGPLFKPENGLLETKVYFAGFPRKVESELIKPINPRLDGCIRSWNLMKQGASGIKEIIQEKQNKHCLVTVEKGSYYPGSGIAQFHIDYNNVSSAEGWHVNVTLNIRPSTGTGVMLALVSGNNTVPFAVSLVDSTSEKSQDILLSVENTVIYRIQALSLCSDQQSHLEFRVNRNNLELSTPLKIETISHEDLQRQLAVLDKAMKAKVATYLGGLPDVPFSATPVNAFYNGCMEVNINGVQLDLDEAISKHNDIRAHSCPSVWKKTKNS

B1: ch2D3C6 (antibody, human IgG1, kappa, V domains shown)
VH: DIQLQESGPGLVKPSQSLSLTCSVTGYSITNGYYWNWIRQFPGNKLEWMGYISYDGTNNYNPSLKNRISITRDTSKNQFFLKLNSVTTEDTATYYCARRALWYYAMDYWGQGTSVTVSS
VL: DIVMTQSPASLAVSLGQRATISCKASQSVDYDGESYMNWYQQKPGQPPKLLIYVASNLESGIPARFSGSGSGTDFTLNIHPVEEEDAATYYCQQSDEDPYTFGGGTKLEIKR
notes: Human-mouse chimeric antibody, mouse VH/VL cloned into pTT5_hIgG1.G1m3 / pTT5_hKappa.Km3, made in HEK293; also called ch2D3C6-IgG
B2: ch2O18G6 (antibody, human IgG1, kappa, V domains shown)
VH: QVQLQQSGPELVKPGASVKISCKTSGNTFTEYIMHWVKQSHGKSLEWIGGINPKNGGTSYNQKFKGKATLTVDKSSRTAYMELRSLTSEDSAVYYCARVRIPPYVYYAMDYWGQGTTVTVSS
VL: DVVVTQTPLSLPVSLGDQASISCRSSQSIVHSNGNTYLEWYLQKPGQSPKLLIYKVSNRFSGVPDRFSGSGSGTDFTLKISRVEAEDLGVYYCFQGSHVPYTFGGGTKLEIKR
notes: Human-mouse chimeric antibody, hIgG1 (G1m3) / human kappa (Km3), made in HEK293; also called ch2O18G6-IgG
B3: ch11B11D12 (antibody, human IgG1, kappa, V domains shown)
VH: QVQLQQSGAELAKPGASVKMSCKASGYTFTRYWIHWVKQRPGQGLEWIGYIIPSTGYTEYSQRFKDKATLTADKSSNTAYMQLSSLTSEDSAVYYCTRYYRYAKYVMDYWGQGTTVTVSS
VL: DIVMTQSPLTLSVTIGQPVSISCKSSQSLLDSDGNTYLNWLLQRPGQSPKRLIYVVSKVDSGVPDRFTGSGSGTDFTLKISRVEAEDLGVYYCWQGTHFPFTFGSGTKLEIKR
notes: Human-mouse chimeric antibody, hIgG1 (G1m3) / human kappa (Km3), made in HEK293; also called ch11B11D12-IgG
B4: ch15G5E5 (antibody, human IgG1, kappa, V domains shown)
VH: EVQLQQSGPELVKPGASVKMSCKASGYTFTDDYMKWVKQSHGKSLEWIGDINPNNGGTIYNQKFKGKAILTVDKSSSTAYMQLNSLTSEDSAVYYCARRGRGSWGQGTTVTVSS
VL: B2 VL with V3L, V4M, H31Y, K55R, V90I, Y101L, G105A, I111L
notes: Human-mouse chimeric antibody, hIgG1 (G1m3) / human kappa (Km3), made in HEK293; also called ch15G5E5-IgG
B5: ch18I16C6 (antibody, human IgG1, kappa, V domains shown)
VH: EVKIEESGGGLVKPGGSLKLSCAASGFTFSSYAMSWFRQTPEKRLEWVASISSGGNSYYPDSVKGRFTISRDNARNILYLQMSSLRSEDTAMYYCSRTPDYWGQGTTVTVSS
VL: DVVMTQSPSSMCASLGERVTITCKASQDINTYLSWFQQKPGKSPKTLIYRANRLVDGVPSRFSGSGSGQDYSLTISSLEYEDMGIYYCLQYDEFPFTFGSGTKLEIKR
notes: Human-mouse chimeric antibody, hIgG1 (G1m3) / human kappa (Km3), made in HEK293; also called ch18I16C6-IgG

How the values were obtained:
[1] = molecular target: T1, 重组人GAS6 his 蛋白(Novoprotein，Cat#C01W); test: ELISA, coated human GAS6 his 0.5 ug/ml
[2] = molecular target: T2, 鼠GAS6 his蛋白(Sino …); test: ELISA, coated mouse GAS6 his 0.5 ug/ml
[3] = molecular target: T3, 重组人Protein S his 蛋白(R&D，Cat# 9489-PS); test: ELISA, coated human Protein S his 1 ug/ml

Row | Binder | EC50 [1] [nM] | EC50 [2] [nM] | EC50 [3] [nM]
1 | B1 | 0.19 | 1.42 | –
2 | B2 | 0.21 | 0.22 | 0.025
3 | B3 | 0.18 | 0.15 | –
4 | B4 | 0.16 | 4.94 | 0.2
5 | B5 | 0.11 | 0.1 | 0.008
